Consider 5 molecules from patent publication US11427812B2, “Antimicrobial agents against Staphylococcus aureus” (LYSANDO AG, priority 2016, dated 2022).

Series [1] deals with S. aureus Sp10. The series can be described thus: MIC assay over several culture cycles (resistance development). It is filed as cell-based, Staphylococcus aureus. The text has this: Becker et al. (Sci Rep. 2016 Apr. 28; 6:25063) reported construction of fusion protein L-K with reduced incidence of resistant S. aureus strain development. In an attempt to provide other improved fusion proteins against S. aureus, the inventors generated two fusion proteins, each comprising the CHAP domain of LysK endolysin, the M23 endopeptidase domain of lysostaphin; and the cell wall binding domain (CBD) of ALE-1. In addition, one of the fusion proteins did comprise the cathepsin G (77-83) peptide (SEQ ID NO:94), the other the cationic peptide KNK (SEQ ID NO:38). The resulting fusion proteins (SEQ ID NO:105 and SEQ ID NO: 107) were assayed for antibacterial activity and resistance development. For this purpose MIC (minimal inhibitory concentration) assays (see below) were carried out for several culture cycles.
MIC assay S. aureus Sp10 was grown in (Luria-Bertani) medium and diluted 1:10 in Mueller-Hinton medium. At an optical density OD600 of about 0.6, bacteria were diluted in the same medium 1:10 followed by a 1:500 dilution. Protein buffer (20 mM HEPES, 500 mM NaCl, pH 7.4) and proteins or gentamycin were pipetted into a 96 well plate, using different concentrations of proteins/gentamycin and an end volume of 20 μl. The proteins used were the fusion proteins according to SEQ ID NO:105 and SEQ ID NO: 107. 180 μl of bacterial cells or a medium (Mueller-Hinton) control were given to the 96 well plate and mixed. The plate was incubated for 18-22 hours at 37° C. and the bacterial growth was determined measuring the OD600 values of the wells. The well with the lowest concentration of protein/gentamycin showing the same OD600 value as the medium control was taken as MIC. For the next cycle, the bacterial solution from the sub-MIC well was used. The sub-MIC well is the well in which the next lower concentration to the MIC concentration was tested, i.e. the well with the highest concentration of protein/gentamycin but still OD600 above the medium control. For further cycles of the resistance assay, the bacteria from this sub-MIC well of the previous cycle were taken for the next over-night culture.

Series [2] relates to Staphylococcus aureus DSM 346. The series can be described thus: Thermal stability assay (standard MIC assay after heat incubation). It is filed as cell-based. As to conditions: for MIC: protein 0.3 mg/ml, DSM 346; for thermal stability: in comparison to the unmodified fusion protein. The method, then: In addition, thermal stability was assessed for two of said mutants in comparison to the unmodified fusion protein. The thermal stability assay was carried out with the strain Staphylococcus aureus DSM 346. The proteins were diluted to a concentration of 0.3 mg/ml followed by an incubation for 20 minutes at different temperatures (see table 8 below). A standard MIC assay was carried out after this incubation time.

[3] abbreviates: cycle 1 (initial MIC), S. aureus Sp10.
[4] abbreviates: cycle 1, fold change over initial MIC (cycle 1).
[5] abbreviates: cycle 6, fold change over initial MIC (cycle 1).
Where [6] appears, read: cycle 12, fold change over initial MIC (cycle 1).
[7] abbreviates: after 20 minutes incubation at 44.6° C.
The mark [8] stands for this setting: after 20 minutes incubation at 47.1° C.
[9] abbreviates: after 20 minutes incubation at 49.7° C.
The mark [10] stands for this setting: after 20 minutes incubation at 52.3° C.
[11] abbreviates: after 20 minutes incubation at 54.9° C.
Setting [12] is: after 20 minutes incubation at 57.4° C.
[13] abbreviates: after 20 minutes incubation at 60° C.
Where [14] appears, read: after 20 minutes incubation at RT.

With gentamycin [reference compound], the “Minimal inhibitory concentration (MIC)” value in series [1] (setting [3]) is 0.8 µg/mL; in series [1] (cycle 6, S. aureus Sp10) it was 4 µg/mL; in series [1] (cycle 12, S. aureus Sp10) it was 6 µg/mL. The “Fold change of MIC” value is 1 in series [1] (setting [4]), 5 in series [1] (setting [5]) and 7.5 in series [1] (setting [6]).

B1: Clone 11: variant of SEQ ID NO: 107 with mutations K17E, H51Q (protein)
chain: MAKTQAEINKRLDAYAEGTVDSPYRVKKATSYDPSFGVMEAGAIDADGYYQAQCQDLITDYVLWLTDNKVRTWGNAKDQIKQSYGTGFKIHENKPSTVPKKGWIAVFTSGSYEQWGHIGIVYDGGNTSTFTILEQNWNGYANKKPTKRVDNYYGLTHFIEIPVKAGTTVKKETAKKSATSHEHSAQWLNNYKKGYGYGPYPLGINGGMHYGVDFFMNIGTPVKAISSGKIVEAGWSNYGGGNQIGLIENDGVHRQWYMHLSKYNVKVGDYVKAGQIIGWSGSTGYSTAPHLHFQRMVNSFSNSTAQDPMPFLKSAGYGKAGGTVTPTPNPGNGYKTNKYGTLYKSESASFTANTDIITRLTGPFRSMPQSGVLRKGLTIKYDEVMKQDGHVWVGYNTNSGKRVYLPVRTWNESTGELGPLWGTIKGSHHHHHHGGSKNK
modifications: Fusion protein comprising CHAP domain of LysK endolysin, M23 endopeptidase domain of lysostaphin, cell wall binding domain of ALE-1, His6-tag and synthetic peptide KNK
For the molecule B1, the MIC was 6 µg/mL in series [2] (setting [7]); 10 µg/mL in series [2] (setting [8]); 10 µg/mL in series [2] (setting [9]); 16 µg/mL in series [2] (setting [10]); greater than 30 µg/mL in series [2] (setting [11]); greater than 30 µg/mL in series [2] (setting [12]). The MIC in series [2] (setting [13]) is greater than 30 µg/mL; in series [2] (setting [14]) it was 4 µg/mL. Further, the thermal stability entry in series [2] is “increased thermal stability”.

B2: SEQ ID NO: 107: fusion protein: CHAP domain of LysK, M23 endopeptidase domain of lysostaphin, CBD of ALE-1 and a further peptide (cathepsin G (77-83) or KNK) (protein)
chain: MAKTQAEINKRLDAYAKGTVDSPYRVKKATSYDPSFGVMEAGAIDADGYYHAQCQDLITDYVLWLTDNKVRTWGNAKDQIKQSYGTGFKIHENKPSTVPKKGWIAVFTSGSYEQWGHIGIVYDGGNTSTFTILEQNWNGYANKKPTKRVDNYYGLTHFIEIPVKAGTTVKKETAKKSATSHEHSAQWLNNYKKGYGYGPYPLGINGGMHYGVDFFMNIGTPVKAISSGKIVEAGWSNYGGGNQIGLIENDGVHRQWYMHLSKYNVKVGDYVKAGQIIGWSGSTGYSTAPHLHFQRMVNSFSNSTAQDPMPFLKSAGYGKAGGTVTPTPNPGNGYKTNKYGTLYKSESASFTANTDIITRLTGPFRSMPQSGVLRKGLTIKYDEVMKQDGHVWVGYNTNSGKRVYLPVRTWNESTGELGPLWGTIKGSHHHHHHGGSKNK
modifications: Fusion protein comprising CHAP domain of LysK endolysin, M23 endopeptidase domain of lysostaphin, cell wall binding domain of ALE-1, His6-tag and synthetic peptide KNK
In the case of B2, the “Minimal inhibitory concentration (MIC)” value in series [1] (setting [3]) stood at 4 µg/mL; in series [1] (cycle 6, S. aureus Sp10) it was 4 µg/mL; in series [1] (cycle 12, S. aureus Sp10), 6 µg/mL. Moreover, the “Fold change of MIC” value in series [1] (setting [4]) was found to be 1; in series [1] (setting [5]), 1; in series [1] (setting [6]), 1.5. The MIC is 20 µg/mL in series [2] (setting [7]); 25 µg/mL in series [2] (setting [8]); 30 µg/mL in series [2] (setting [9]); 30 µg/mL in series [2] (setting [10]); greater than 30 µg/mL in series [2] (setting [11]); greater than 30 µg/mL in series [2] (setting [12]). The MIC in series [2] (setting [13]) is greater than 30 µg/mL; in series [2] (setting [14]), 6 µg/mL.

B3: Clone 15: variant of SEQ ID NO: 107 with mutations K17E, H51Q, K28N, T86A, G154S (protein)
chain: MAKTQAEINKRLDAYAEGTVDSPYRVKNATSYDPSFGVMEAGAIDADGYYQAQCQDLITDYVLWLTDNKVRTWGNAKDQIKQSYGAGFKIHENKPSTVPKKGWIAVFTSGSYEQWGHIGIVYDGGNTSTFTILEQNWNGYANKKPTKRVDNYYSLTHFIEIPVKAGTTVKKETAKKSATSHEHSAQWLNNYKKGYGYGPYPLGINGGMHYGVDFFMNIGTPVKAISSGKIVEAGWSNYGGGNQIGLIENDGVHRQWYMHLSKYNVKVGDYVKAGQIIGWSGSTGYSTAPHLHFQRMVNSFSNSTAQDPMPFLKSAGYGKAGGTVTPTPNPGNGYKTNKYGTLYKSESASFTANTDIITRLTGPFRSMPQSGVLRKGLTIKYDEVMKQDGHVWVGYNTNSGKRVYLPVRTWNESTGELGPLWGTIKGSHHHHHHGGSKNK
modifications: Fusion protein comprising CHAP domain of LysK endolysin, M23 endopeptidase domain of lysostaphin, cell wall binding domain of ALE-1, His6-tag and synthetic peptide KNK
For B3, the MIC in series [2] (setting [7]) is 4 µg/mL; in series [2] (setting [8]) it was 4 µg/mL; in series [2] (setting [9]), 4 µg/mL; in series [2] (setting [10]), 4 µg/mL; in series [2] (setting [11]), 4 µg/mL; in series [2] (setting [12]) it was 6 µg/mL. The MIC in series [2] (setting [13]) came out at 8 µg/mL; in series [2] (setting [14]), 4 µg/mL. Also, the thermal stability result in series [2] was “increased thermal stability”.

B4: SEQ ID NO: 105: fusion protein: CHAP domain of LysK, M23 endopeptidase domain of lysostaphin, CBD of ALE-1 and a further peptide (cathepsin G (77-83) or KNK) (protein)
chain: MAKTQAEINKRLDAYAKGTVDSPYRVKKATSYDPSFGVMEAGAIDADGYYHAQCQDLITDYVLWLTDNKVRTWGNAKDQIKQSYGTGFKIHENKPSTVPKKGWIAVFTSGSYEQWGHIGIVYDGGNTSTFTILEQNWNGYANKKPTKRVDNYYGLTHFIEIPVKAGTTVKKETAKKSATSHEHSAQWLNNYKKGYGYGPYPLGINGGMHYGVDFFMNIGTPVKAISSGKIVEAGWSNYGGGNQIGLIENDGVHRQWYMHLSKYNVKVGDYVKAGQIIGWSGSTGYSTAPHLHFQRMVNSFSNSTAQDPMPFLKSAGYGKAGGTVTPTPNPGNGYKTNKYGTLYKSESASFTANTDIITRLTGPFRSMPQSGVLRKGLTIKYDEVMKQDGHVWVGYNTNSGKRVYLPVRTWNESTGELGPLWGTIKHHHHHHLKHPQYNQR
modifications: Fusion protein comprising CHAP domain of LysK endolysin, M23 endopeptidase domain of lysostaphin, cell wall binding domain of ALE-1, His6-tag and synthetic peptide HPQYNQR
On to B4, for which the “Minimal inhibitory concentration (MIC)” value in series [1] (setting [3]) stood at 4 µg/mL; in series [1] (cycle 6, S. aureus Sp10), 4 µg/mL; in series [1] (cycle 12, S. aureus Sp10) it was 6 µg/mL. In addition, the “Fold change of MIC” value in series [1] (setting [4]) is 1; in series [1] (setting [5]) it was 1; in series [1] (setting [6]), 1.5.
